# Numbering of substitutions follows the chain as printed. Names may count otherwise.
# B1: GLS3000 R29I (Kabat) L chain altered form, one-arm antibody with CE115HA000 (antibody, human IgG1, kappa, L234A L235A, N297A, name in Kabat numbering)
# heavy: QVQLVESGGGVVQPGRSLRLSCAASGFTFSNAWMHWVRQAPGKGLEWVAQIKAKSNNYATYYAESVKGRFTISRDDSKNSLYLQMNSLKTEDTAVYYCRYVHYGAYYGVDAWGQGTTVTVSSASTKGPSVFPLAPSSKSTSGGTAALGCLVKDYFPEPVTVSWNSGALTSGVHTFPAVLQSSGLYSLSSVVTVPSSSLGTQTYICNVNHKPSNTKVDKKVEPKSCDKTHTCPPCPAPEAAGGPSVFLFPPKPKDTLMISRTPEVTCVVVDVSHEDPEVKFNWYVDGVEVHNAKTKPREEQYASTYRVVSVLTVLHQDWLNGKEYKCKVSNKALPAPIEKTISKAKGQPREPQVYTLPPSRCELTKNQVSLSCAVKGFYPSDIAVEWESNGQPENNYKTTPPVLDSDGSFFLVSKLTVDKSRWQQGNVFSCSVMHEALHNHYTQKSLSLSPDYKDDDDK
# chain: EPKSSDKTHTCPPCPAPELLGGPSVFLFPPKPKDTLMISRTPEVTCVVVDVSHEDPEVKFNWYVDGVEVHNAKTKPREEQYNSTYRVVSVLTVLHQDWLNGKEYKCKVSNKALPAPIEKTISKAKGQPREPQVCTLPPSRDELTKNQVSLWCLVKGFYPSDIAVEWESNGQPENNYKTTPPVLDSDGSFFLYSKLTVDKSRWQQGNVFSCSVMHEALHNRYTQKSLSLSP
# light: DIVMTQSPLSLPVTPGEPASISCRSSQSLVHSNINTYLHWYQQKPGQAPRLLIYKVSNRFSGVPDRFSGSGSGTDFTLKISRVEAEDVGVYYCGQGTQVPYTFGQGTKLEIKRTVAAPSVFIFPPSDEQLKSGTASVVCLLNNFYPREAKVQWKVDNALQSGNSQESVTEQDSKDSTYSLSSTLTLSKADYEKHKVYACEVTHQGLSSPVTKSFNRGEC
# notes: one-arm antibody
# B2: GLS3000 R54A (Kabat) L chain altered form, one-arm antibody with CE115HA000 (antibody, human IgG1, kappa, L234A L235A, N297A, name in Kabat numbering)
# heavy: B1 heavy
# chain: B1 chain
# light: B1 light with I34R, R59A
# notes: one-arm antibody
# B3: GLS3000 S25I (Kabat) L chain altered form, one-arm antibody with CE115HA000 (antibody, human IgG1, kappa, L234A L235A, N297A, name in Kabat numbering)
# heavy: B1 heavy
# chain: B1 chain
# light: B1 light with S25I, I34R
# notes: one-arm antibody
# B4: GLS3000 R29P (Kabat) L chain altered form, one-arm antibody with CE115HA000 (antibody, human IgG1, kappa, L234A L235A, N297A, name in Kabat numbering)
# heavy: B1 heavy
# chain: B1 chain
# light: B1 light with I34P
# notes: one-arm antibody
# B5: GLS3000 S25V (Kabat) L chain altered form, one-arm antibody with CE115HA000 (antibody, human IgG1, kappa, L234A L235A, N297A, name in Kabat numbering)
# heavy: B1 heavy
# chain: B1 chain
# light: B1 light with S25V, I34R
# notes: one-arm antibody
# B6: GLS3000 S26E (Kabat) L chain altered form, one-arm antibody with CE115HA000 (antibody, human IgG1, kappa, L234A L235A, N297A, name in Kabat numbering)
# heavy: B1 heavy
# chain: B1 chain
# light: B1 light with S26E, I34R
# notes: one-arm antibody
# B7: GLS3000 S27aI (Kabat) L chain altered form, one-arm antibody with CE115HA000 (antibody, human IgG1, kappa, L234A L235A, N297A, name in Kabat numbering)
# heavy: B1 heavy
# chain: B1 chain
# light: B1 light with S28I, I34R
# notes: one-arm antibody
# B8: GLS3000 S26P (Kabat) L chain altered form, one-arm antibody with CE115HA000 (antibody, human IgG1, kappa, L234A L235A, N297A, name in Kabat numbering)
# heavy: B1 heavy
# chain: B1 chain
# light: B1 light with S26P, I34R
# notes: one-arm antibody
# B9: GLS3000 S25T (Kabat) L chain altered form, one-arm antibody with CE115HA000 (antibody, human IgG1, kappa, L234A L235A, N297A, name in Kabat numbering)
# heavy: B1 heavy
# chain: B1 chain
# light: B1 light with S25T, I34R
# notes: one-arm antibody
# B10: GLS3000 S27aN (Kabat) L chain altered form, one-arm antibody with CE115HA000 (antibody, human IgG1, kappa, L234A L235A, N297A, name in Kabat numbering)
# heavy: B1 heavy
# chain: B1 chain
# light: B1 light with S28N, I34R
# notes: one-arm antibody
# B11: GLS3000 S27aG (Kabat) L chain altered form, one-arm antibody with CE115HA000 (antibody, human IgG1, kappa, L234A L235A, N297A, name in Kabat numbering)
# heavy: B1 heavy
# chain: B1 chain
# light: B1 light with S28G, I34R
# notes: one-arm antibody
# B12: GLS3000 S25L (Kabat) L chain altered form, one-arm antibody with CE115HA000 (antibody, human IgG1, kappa, L234A L235A, N297A, name in Kabat numbering)
# heavy: B1 heavy
# chain: B1 chain
# light: B1 light with S25L, I34R
# notes: one-arm antibody
# B13: GLS3000 S27aE (Kabat) L chain altered form, one-arm antibody with CE115HA000 (antibody, human IgG1, kappa, L234A L235A, N297A, name in Kabat numbering)
# heavy: B1 heavy
# chain: B1 chain
# light: B1 light with S28E, I34R
# notes: one-arm antibody
# B14: GLS3000 S25D (Kabat) L chain altered form, one-arm antibody with CE115HA000 (antibody, human IgG1, kappa, L234A L235A, N297A, name in Kabat numbering)
# heavy: B1 heavy
# chain: B1 chain
# light: B1 light with S25D, I34R
# notes: one-arm antibody
# B15: GLS3000 S27aD (Kabat) L chain altered form, one-arm antibody with CE115HA000 (antibody, human IgG1, kappa, L234A L235A, N297A, name in Kabat numbering)
# heavy: B1 heavy
# chain: B1 chain
# light: B1 light with S28D, I34R
# notes: one-arm antibody
# B16: GLS3000 R29T (Kabat) L chain altered form, one-arm antibody with CE115HA000 (antibody, human IgG1, kappa, L234A L235A, N297A, name in Kabat numbering)
# heavy: B1 heavy
# chain: B1 chain
# light: B1 light with I34T
# notes: one-arm antibody
# B17: GLS3000 S27eH (Kabat) L chain altered form, one-arm antibody with CE115HA000 (antibody, human IgG1, kappa, L234A L235A, N297A, name in Kabat numbering)
# heavy: B1 heavy
# chain: B1 chain
# light: B1 light with S32H, I34R
# notes: one-arm antibody
# B18: GLS3000 S25P (Kabat) L chain altered form, one-arm antibody with CE115HA000 (antibody, human IgG1, kappa, L234A L235A, N297A, name in Kabat numbering)
# heavy: B1 heavy
# chain: B1 chain
# light: B1 light with S25P, I34R
# notes: one-arm antibody
# B19: GLS3000 S27aY (Kabat) L chain altered form, one-arm antibody with CE115HA000 (antibody, human IgG1, kappa, L234A L235A, N297A, name in Kabat numbering)
# heavy: B1 heavy
# chain: B1 chain
# light: B1 light with S28Y, I34R
# notes: one-arm antibody
# B20: GLS3000 S27eG (Kabat) L chain altered form, one-arm antibody with CE115HA000 (antibody, human IgG1, kappa, L234A L235A, N297A, name in Kabat numbering)
# heavy: B1 heavy
# chain: B1 chain
# light: B1 light with S32G, I34R
# notes: one-arm antibody
# B21: GLS3000 S26D (Kabat) L chain altered form, one-arm antibody with CE115HA000 (antibody, human IgG1, kappa, L234A L235A, N297A, name in Kabat numbering)
# heavy: B1 heavy
# chain: B1 chain
# light: B1 light with S26D, I34R
# notes: one-arm antibody
# B22: GLS3000 S25A (Kabat) L chain altered form, one-arm antibody with CE115HA000 (antibody, human IgG1, kappa, L234A L235A, N297A, name in Kabat numbering)
# heavy: B1 heavy
# chain: B1 chain
# light: B1 light with S25A, I34R
# notes: one-arm antibody
# B23: GLS3000 S27eA (Kabat) L chain altered form, one-arm antibody with CE115HA000 (antibody, human IgG1, kappa, L234A L235A, N297A, name in Kabat numbering)
# heavy: B1 heavy
# chain: B1 chain
# light: B1 light with S32A, I34R
# notes: one-arm antibody
# B24: GLS3000 S25M (Kabat) L chain altered form, one-arm antibody with CE115HA000 (antibody, human IgG1, kappa, L234A L235A, N297A, name in Kabat numbering)
# heavy: B1 heavy
# chain: B1 chain
# light: B1 light with S25M, I34R
# notes: one-arm antibody
# B25: GLS3000 S27eF (Kabat) L chain altered form, one-arm antibody with CE115HA000 (antibody, human IgG1, kappa, L234A L235A, N297A, name in Kabat numbering)
# heavy: B1 heavy
# chain: B1 chain
# light: B1 light with S32F, I34R
# notes: one-arm antibody
# B26: GLS3000 R29Y (Kabat) L chain altered form, one-arm antibody with CE115HA000 (antibody, human IgG1, kappa, L234A L235A, N297A, name in Kabat numbering)
# heavy: B1 heavy
# chain: B1 chain
# light: B1 light with I34Y
# notes: one-arm antibody
# B27: GLS3000 S25E (Kabat) L chain altered form, one-arm antibody with CE115HA000 (antibody, human IgG1, kappa, L234A L235A, N297A, name in Kabat numbering)
# heavy: B1 heavy
# chain: B1 chain
# light: B1 light with S25E, I34R
# notes: one-arm antibody
# B28: GLS3000 R29S (Kabat) L chain altered form, one-arm antibody with CE115HA000 (antibody, human IgG1, kappa, L234A L235A, N297A, name in Kabat numbering)
# heavy: B1 heavy
# chain: B1 chain
# light: B1 light with I34S
# notes: one-arm antibody
# B29: GLS3000 S27eI (Kabat) L chain altered form, one-arm antibody with CE115HA000 (antibody, human IgG1, kappa, L234A L235A, N297A, name in Kabat numbering)
# heavy: B1 heavy
# chain: B1 chain
# light: B1 light with S32I, I34R
# notes: one-arm antibody
# B30: GLS3000 S27eD (Kabat) L chain altered form, one-arm antibody with CE115HA000 (antibody, human IgG1, kappa, L234A L235A, N297A, name in Kabat numbering)
# heavy: B1 heavy
# chain: B1 chain
# light: B1 light with S32D, I34R
# notes: one-arm antibody
# B31: GLS3000 S27aP (Kabat) L chain altered form, one-arm antibody with CE115HA000 (antibody, human IgG1, kappa, L234A L235A, N297A, name in Kabat numbering)
# heavy: B1 heavy
# chain: B1 chain
# light: B1 light with S28P, I34R
# notes: one-arm antibody
# B32: GLS3000 R29L (Kabat) L chain altered form, one-arm antibody with CE115HA000 (antibody, human IgG1, kappa, L234A L235A, N297A, name in Kabat numbering)
# heavy: B1 heavy
# chain: B1 chain
# light: B1 light with I34L
# notes: one-arm antibody
# B33: GLS3000 R29V (Kabat) L chain altered form, one-arm antibody with CE115HA000 (antibody, human IgG1, kappa, L234A L235A, N297A, name in Kabat numbering)
# heavy: B1 heavy
# chain: B1 chain
# light: B1 light with I34V
# notes: one-arm antibody
# B34: GLS3000 S27eE (Kabat) L chain altered form, one-arm antibody with CE115HA000 (antibody, human IgG1, kappa, L234A L235A, N297A, name in Kabat numbering)
# heavy: B1 heavy
# chain: B1 chain
# light: B1 light with S32E, I34R
# notes: one-arm antibody
# Target: T1, CD3 epsilon homodimer protein (UniProt P07766 23-126)
# T1 construct: construct not described; homodimer as printed; also called CD3 (CD3 epsilon)
# Assay: SPR Biacore T200, CD3 epsilon homodimer immobilized; vs unaltered GLS3000;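 further: antibody variants flowed as analyte over CD3 epsilon homodimer amine-coupled to a CM4 chip, at 25 °C in HBS-EP+ running buffer, fitted with Biacore T200 Evaluation Software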
# T1 sequence (P07766 23-126): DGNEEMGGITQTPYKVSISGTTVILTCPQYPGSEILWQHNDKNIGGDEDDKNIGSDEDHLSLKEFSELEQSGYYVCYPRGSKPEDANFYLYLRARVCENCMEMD
row,KD ratio to GLS3000 (Affinity up),Binder
1,1.6,B1
2,0.85,B2
3,0.67,B3
4,14,B4
5,0.74,B5
6,0.9,B6
7,0.87,B7
8,0.67,B8
9,0.75,B9
10,0.98,B10
11,0.8,B11
12,4.93,B12
13,0.94,B13
14,8.86,B14
15,0.94,B15
16,1.02,B16
17,1.09,B17

row,KD ratio to GLS3000 (Affinity up),Binder
1,0.79,B18
2,0.93,B19
3,1.03,B20
4,1.06,B21
5,0.73,B22
6,1.01,B23
7,1.6,B24
8,1.16,B25
9,1.08,B26
10,6.54,B27
11,1.05,B28
12,1.05,B29
13,1.23,B30
14,1.01,B31
15,0.9,B32
16,2.25,B33
17,1.04,B34
